T1: dCD40-His (CD40 Protein, Canine, Recombinant (His Tag), Sino Biological Inc., Cat #: 70105-D08H) (dog, UniProt Q7YRL5 21-194)
T1 construct: Bought protein; also called dog CD40; not shown: His tag
T1 sequence (looked up): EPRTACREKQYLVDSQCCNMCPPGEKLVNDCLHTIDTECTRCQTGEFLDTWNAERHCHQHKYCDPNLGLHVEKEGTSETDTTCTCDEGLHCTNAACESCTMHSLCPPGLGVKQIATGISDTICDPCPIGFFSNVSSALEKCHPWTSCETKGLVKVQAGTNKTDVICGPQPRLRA


Tests used:
[1] = target: T2, hCD40-His (Human CD40 protein having a His-Tag, Beijing ACROBiosystems Co. Ltd., Cat #: CD0-H5228) (human, UniProt P25942 21-193); assay: SPR, Biacore 8K, Protein A chip, CD40-His as analyte, 1:1 Langmuir fit
T2 construct: Bought protein; not shown: His tag
Description: (§1) Purified anti-CD40 antibodies at concentrations of 1 μg/ml with 1×HBS-EP+ buffer (PH 7.4) were then injected at 1 μl/min for 50 seconds. Dissociation was monitored for 400 seconds. The chip was regenerated after the last injection of each titration with a glycine solution (pH 2.0) at 30 μl/min for 30 seconds.

[2] = target: T3, fasCD40-His (Cynomolgus CD40/TNFRSF5 Protein, His Tag, Beijing ACRO Biosystems Co. Ltd., Cat #: CD0-C52H6) (Macaca fascicularis, UniProt G7PG38 21-193); assay: as above
T3 construct: Bought protein; also called monkey (Macaca fascicularis) CD40; not shown: His tag
Description: as §1

[3] = target: T1, dCD40-His (CD40 Protein, Canine, …); assay: as above
Description: as §1

[4] = target: hFcRn-His (FCGRT&B2M Heterodimer Protein, His Tag&Strep II Tag, Beijing ACROBiosystems Co. Ltd., Cat #: FCM-H5286) (human) (UniProt P61769); assay: SPR, Biacore 8K or T200, Protein A chip, steady state affinity model, pH 6.0; pH 6.0

T2 sequence (P25942 21-193 limits assumed): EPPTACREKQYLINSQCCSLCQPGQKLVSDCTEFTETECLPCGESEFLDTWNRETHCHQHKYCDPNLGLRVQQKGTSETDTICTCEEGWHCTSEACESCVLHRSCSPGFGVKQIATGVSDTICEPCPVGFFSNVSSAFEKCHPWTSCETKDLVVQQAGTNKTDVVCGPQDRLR

| Kd [1] | koff [1] | kon [1] | Kd [2] | koff [2] | kon [2] | Kd [3] | koff [3] | kon [3] | Kd [4] | Binder |
| --- | --- | --- | --- | --- | --- | --- | --- | --- | --- | --- |
| 1.59 nM | 0.000682 s⁻¹ | 429000 M⁻¹ s⁻¹ | 3.35 nM | 0.000907 s⁻¹ | 270000 M⁻¹ s⁻¹ | – | – | – | – | Bleselumab analog (antibody, human IgG4, V domains shown) VH: QLQLQESGPGLLKPSETLSLTCTVSGGSISSPGYYGGWIRQPPGKGLEWIGSIYKSGSTYHNPSLKSRVTISVDTSKNQFSLKLSSVTAADTAVYYCTRPVVRYFGWFDPWGQGTLVTVSS VL: AIQLTQSPSSLSASVGDRVTITCRASQGISSALAWYQQKPGKAPKLLIYDASNLESGVPSRFSGSGSGTDFTLTISSLQPEDFATYYCQQFNSYPTFGQGTKVEIKR |
| 0.351 nM | 0.000229 s⁻¹ | 654000 M⁻¹ s⁻¹ | 0.301 nM | 0.000297 s⁻¹ | 989000 M⁻¹ s⁻¹ | 5.18 nM | 0.00266 s⁻¹ | 513000 M⁻¹ s⁻¹ | – | 2F8-IgG4-FLAA (antibody, V domains shown, Rest: human IgG4 constant regions with FLAA mutations (F234A and L235A, EU numbering)) VH: EVQLVQSGGGVVQPGRSLRLSCAASGFSFSSYAMHWVRQVPGKGLEWVSVISYDGDNKYHAESVKGRFTISRDNSKNILYLQMNSLRPEDTAVYYCARRGTVTNYYSYSGLDVWGQGTTVTVSS VL: DIQLTQSPLSLPVTPGEPASISCRSSQSLLYSNGKNYLDWYLQKPGQSPQLLIYLASNRASGVPDRFSGSGSGTDFTLKISRVEAEDVGVYFCMQALQTPRTFGQGTKVEIKR |
| 0.735 nM | 0.000389 s⁻¹ | 529000 M⁻¹ s⁻¹ | 0.495 nM | 0.000265 s⁻¹ | 535000 M⁻¹ s⁻¹ | 32.1 nM | 0.0129 s⁻¹ | 401000 M⁻¹ s⁻¹ | 497 nM | 12B5-IgG4-FLAA (antibody, V domains shown, Rest: human IgG4 constant regions with FLAA mutations (F234A and L235A, EU numbering); copies: 2 + 2) VH: QVQLVQSGPGLVKPSETLSLTCTVSGGSISYYYWSWIRQPPGKGLEWIGHISYSGSTNYNPSLKSRVTISEDTSKKQFSLKLDSVTAADTAVYYCAGGIVGARRGFDFWGQGTLVTVSS VL: EIVMTQSPATLSLSPGERATLSCRASQSVSNNLAWYQQKPGQAPRLLIYDASNRAADIPARFSGSGSGTDFTLTISSLEPEDFAVYYCQQRNNWPPTFGQGTKVEIKR |
| 1.66 nM | 0.000511 s⁻¹ | 309000 M⁻¹ s⁻¹ | 51.7 nM | 0.0149 s⁻¹ | 288000 M⁻¹ s⁻¹ | – | – | – | – | 6A4-IgG4-FLAA (antibody, V domains shown, Rest: human IgG4 constant regions with FLAA mutations (F234A and L235A, EU numbering)) VH: QVQLVQSGGGLVQPGGSLRLSCAASGFTFSNYVMSWVRQAPGKGLEWVSTIRGSGISTYYTDSVKGRFTTSRDNPKNTLFLQMSSLRAEDTAVYYCAKGIVGATTPFDYWGQGTLVTVSS VL: EIVLTQSPATLSLSPGERATLSCRASQSVRSFLAWYQQKPGQAPRLLIYETSNRATGIPARFSGSGSGTDFTLTISSLEPEDFAVYYCQQRSDWPPTFGQGTKVEIKR |
